Measurements taken from PMC12846278, “Efficient Expression of Lactone Hydrolase Cr2zen for Scalable Zearalenone Degradation in Pichia pastoris” (Toxins, 2025).

Tested on: T1, C[C@H]1CCCC(=O)CCC/C=C/c2cc(O)cc(O)c2C(=O)O1
T1 construct: full-length ORF (792 bp, 264 aa, 29 kDa) in pPICZalphaA with alpha-factor secretion signal, secreted from Pichia pastoris X33; ~35 kDa band for Ser-Cr2
Assay: HPLC, ZEN degradation; Lineweaver-Burk
Type: biochemical, Clonostachys rosea
Details: 20 mM Tris-HCl pH 8.0, 30 °C

Cr2zen (Clonostachys rosea)
Km: 75.9 ± 2.1 µM
